Data as given in PMC9363427, “The SWI/SNF chromatin remodeling factor DPF3 regulates metastasis of ccRCC by modulating TGF-β signaling” (Nature Communications, 2022).

T1: GST-tagged full-length SNIP1 (recombinant) (human, UniProt Q8TAD8 1-396)
T1 construct: also called SNIP1-FL; source: E. coli BL21 (DE3)-RIL, purified (Glutathione Sepharose 4B, Superdex 200)
T1 sequence (looked up): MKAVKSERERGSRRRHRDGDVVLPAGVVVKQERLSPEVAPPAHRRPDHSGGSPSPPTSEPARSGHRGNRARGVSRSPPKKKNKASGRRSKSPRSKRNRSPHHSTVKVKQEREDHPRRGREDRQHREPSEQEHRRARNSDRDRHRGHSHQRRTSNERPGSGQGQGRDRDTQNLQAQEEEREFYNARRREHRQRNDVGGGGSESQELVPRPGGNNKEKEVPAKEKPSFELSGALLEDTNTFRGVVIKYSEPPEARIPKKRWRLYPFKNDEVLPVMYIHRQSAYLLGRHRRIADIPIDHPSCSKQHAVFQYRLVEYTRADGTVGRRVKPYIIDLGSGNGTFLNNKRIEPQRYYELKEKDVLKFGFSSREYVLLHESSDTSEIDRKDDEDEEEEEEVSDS

B1: Recombinant full-length DPF3a, GST tag removed (natural protein, human, UniProt Q92784-2 1-357, looked up)
chain: MATVIHNPLKALGDQFYKEAIEHCRSYNSRLCAERSVRLPFLDSQTGVAQNNCYIWMEKRHRGPGLAPGQLYTYPARCWRKKRRLHPPEDPKLRLLEIKPEVELPLKKDGFTSESTTLEALLRGEGVEKKVDAREEESIQEIQRVLENDENVEEGNEEEDLEEDIPKRKNRTRGRARGSAGGRRRHDAASQEDHDKPYVCDICGKRYKNRPGLSYHYAHTHLASEEGDEAQDQETRSPPNHRNENHRPQKGPDGTVIPNNYCDFCLGGSNMNKKSGRPEELVSCADCGRSAHLGGEGRKEKEAAAAARTTEDLFGSTSESDTSTFHGFDEDDLEEPRSCRGRRSGRGSPTADKKGSC
notes: Zinc finger protein DPF3, isoform DPF3a, cDNA subcloned into pGEX-6P-1; Expressed with 0.1 mM ZnSO4; also called DPF3a-FL; full-length DPF3a proteins; source: E. coli BL21 (DE3)-RIL, purified (Glutathione Sepharose 4B, 3C protease, Superdex 200)

Experiments:
[1] = target: B1; experiment: pull-down; 1.5 nmol GST-tagged DPF3a or SNIP1 construct on Glutathione Sepharose 4B beads, 2 nmol SNIP1 1-240 or full-length DPF3a added, 4 °C 2 h; 20 mM Tris pH 7.5, 100 mM NaCl, 5 mM β-mercaptomethanol; washes with 0.5% Triton X-100; SDS-PAGE; details: both partners purified
[2] = target: T1, GST-tagged full-length SNIP1 …; experiment: as above; details: both partners purified

| binding result [1] | binding result [2] | Binder |
| --- | --- | --- |
| binds |  | GST-tagged SNIP1 N-terminus (1-240) (recombinant) (domain or fragment, human, UniProt Q8TAD8 1-240, looked up, also called SNIP1-IDR; source: E. coli BL21 (DE3)-RIL, purified (Glutathione Sepharose 4B, Superdex 200)) MKAVKSERERGSRRRHRDGDVVLPAGVVVKQERLSPEVAPPAHRRPDHSGGSPSPPTSEPARSGHRGNRARGVSRSPPKKKNKASGRRSKSPRSKRNRSPHHSTVKVKQEREDHPRRGREDRQHREPSEQEHRRARNSDRDRHRGHSHQRRTSNERPGSGQGQGRDRDTQNLQAQEEEREFYNARRREHRQRNDVGGGGSESQELVPRPGGNNKEKEVPAKEKPSFELSGALLEDTNTFR |
|  | binds | B1 |
